Assay results: article doi:10.1101/2021.10.12.462922 (bioRxiv, 2021)
Read-outs that look alike come from different tables or passages of the source. Blank lines part the entries; values can stand above or below the binder they belong to.

Key:
HMG20A [1] = biological target: T1, HMG20A (human, UniProt Q9NP66 1-347); assay: EMSA
PHF14;HMG20A = PHF14;HMG20A (human;human, UniProt O94880;Q9NP66 1-948;1-347, |); assay: EMSA
PHF14;HMG20A;TCF20 = PHF14;HMG20A;TCF20 (human;human;human, UniProt O94880;Q9NP66;Q9UGU0 1-948;1-347;1-1960, ||); assay: EMSA
PHF14 = biological target: T2, PHF14 (human, UniProt O94880 1-948); assay: EMSA
T2 sequence: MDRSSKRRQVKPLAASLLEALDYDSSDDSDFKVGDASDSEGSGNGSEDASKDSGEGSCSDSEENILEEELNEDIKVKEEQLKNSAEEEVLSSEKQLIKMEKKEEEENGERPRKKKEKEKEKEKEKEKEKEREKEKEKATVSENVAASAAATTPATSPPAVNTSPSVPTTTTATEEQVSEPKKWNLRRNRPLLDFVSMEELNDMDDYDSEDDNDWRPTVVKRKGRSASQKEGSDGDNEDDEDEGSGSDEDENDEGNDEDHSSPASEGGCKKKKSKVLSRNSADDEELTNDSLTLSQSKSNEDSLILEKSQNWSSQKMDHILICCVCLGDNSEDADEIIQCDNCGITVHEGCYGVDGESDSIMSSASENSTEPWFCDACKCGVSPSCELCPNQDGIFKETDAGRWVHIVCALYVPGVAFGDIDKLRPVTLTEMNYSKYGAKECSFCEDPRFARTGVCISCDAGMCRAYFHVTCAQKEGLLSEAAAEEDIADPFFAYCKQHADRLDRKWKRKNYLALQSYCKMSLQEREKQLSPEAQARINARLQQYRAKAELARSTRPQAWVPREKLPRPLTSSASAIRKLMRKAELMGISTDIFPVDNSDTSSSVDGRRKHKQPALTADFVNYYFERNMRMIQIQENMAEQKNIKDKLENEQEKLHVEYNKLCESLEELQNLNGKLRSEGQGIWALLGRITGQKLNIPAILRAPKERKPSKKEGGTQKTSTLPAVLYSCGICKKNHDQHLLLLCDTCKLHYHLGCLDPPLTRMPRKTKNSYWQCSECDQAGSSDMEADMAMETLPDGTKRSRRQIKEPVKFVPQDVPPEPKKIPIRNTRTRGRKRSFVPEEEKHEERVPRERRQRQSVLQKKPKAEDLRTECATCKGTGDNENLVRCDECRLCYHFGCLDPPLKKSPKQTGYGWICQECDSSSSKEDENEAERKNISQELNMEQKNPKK

HMG20A [2] = biological target: T1, HMG20A; assay: EMSA; remark: listed apart in the source
[3] = biological target: T3, HMG20A, human, recombinant from insect cells (human, UniProt Q9NP66 1-347); assay: native gel or EMSA
T3 sequence: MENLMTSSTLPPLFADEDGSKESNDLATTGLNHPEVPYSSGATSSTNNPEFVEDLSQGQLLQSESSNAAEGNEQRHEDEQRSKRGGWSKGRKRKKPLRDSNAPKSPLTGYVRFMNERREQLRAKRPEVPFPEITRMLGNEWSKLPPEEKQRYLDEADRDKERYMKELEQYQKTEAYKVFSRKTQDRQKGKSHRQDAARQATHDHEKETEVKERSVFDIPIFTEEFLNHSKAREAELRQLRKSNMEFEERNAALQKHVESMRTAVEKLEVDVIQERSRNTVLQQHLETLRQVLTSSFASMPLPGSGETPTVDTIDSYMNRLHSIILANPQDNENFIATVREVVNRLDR

[4] = biological target: PHF14 (PHD finger protein 14), human, recombinant from insect cells (human) (UniProt O94880); assay: native gel or EMSA

B1: dsDNA (dsDNA)
DNA 1: CCCTATAACCCCTGCATTGAATTCCAGTCTGATAA
DNA 2: TTTATCAGACTGGAATTCAATGCAGGGGTTATAGGG
- binding result (HMG20A [1]): binds
- binding result (PHF14;HMG20A): binds
- binding result (PHF14;HMG20A;TCF20): binds

B2: 4WJ (four-way junction, Holliday junction) (structured_DNA)
DNA 1: B1 DNA 1
DNA 2: GTAGTCGTGATAGGTGCAGGGGTTATAGGG
DNA 3: AACAGTAGCTCTTATTCGAGCTCGCGCCCTATCACGACTA
DNA 4: TTTATCAGACTGGAATTCAAGCGCGAGCTCGAATAAGAGCTACTGT
- binding result (PHF14;HMG20A): binds
- binding result (PHF14): no binding
- binding result (HMG20A [2]): binds
- binding result (PHF14;HMG20A;TCF20): binds

- stoichiometry N [3]: 0.5
- stoichiometry N [4]: 0.5
B3: TCF20 (transcription factor 20), human, recombinant from insect cells (natural protein)
chain: MQSFREQSSYHGNQQSYPQEVHGSSRLEEFSPRQAQMFQNFGGTGGSSGSSGSGSGGGRRGAAAAAAAMASETSGHQGYQGFRKEAGDFYYMAGNKDPVTTGTPQPPQRRPSGPVQSYGPPQGSSFGNQYGSEGHVGQFQAQHSGLGGVSHYQQDYTGPFSPGSAQYQQQASSQQQQQQVQQLRQQLYQSHQPLPQATGQPASSSSHLQPMQRPSTLPSSAAGYQLRVGQFGQHYQSSASSSSSSSFPSPQRFSQSGQSYDGSYNVNAGSQYEGHNVGSNAQAYGTQSNYSYQPQSMKNFEQAKIPQGTQQGQQQQQPQQQQHPSQHVMQYTNAATKLPLQSQVGQYNQPEVPVRSPMQFHQNFSPISNPSPAASVVQSPSCSSTPSPLMQTGENLQCGQGSVPMGSRNRILQLMPQLSPTPSMMPSPNSHAAGFKGFGLEGVPEKRLTDPGLSSLSALSTQVANLPNTVQHMLLSDALTPQKKTSKRPSSSKKADSCTNSEGSSQPEEQLKSPMAESLDGGCSSSSEDQGERVRQLSGQSTSSDTTYKGGASEKAGSSPAQGAQNEPPRLNASPAAREEATSPGAKDMPLSSDGNPKVNEKTVGVIVSREAMTGRVEKPGGQDKGSQEDDPAATQRPPSNGGAKETSHASLPQPEPPGGGGSKGNKNGDNNSNHNGEGNGQSGHSAAGPGFTSRTEPSKSPGSLRYSYKDSFGSAVPRNVSGFPQYPTGQEKGDFTGHGERKGRNEKFPSLLQEVLQGYHHHPDRRYSRSTQEHQGMAGSLEGTTRPNVLVSQTNELASRGLLNKSIGSLLENPHWGPWERKSSSTAPEMKQINLTDYPIPRKFEIEPQSSAHEPGGSLSERRSVICDISPLRQIVRDPGAHSLGHMSADTRIGRNDRLNPTLSQSVILPGGLVSMETKLKSQSGQIKEEDFEQSKSQASFNNKKSGDHCHPPSIKHESYRGNASPGAATHDSLSDYGPQDSRPTPMRRVPGRVGGREGMRGRSPSQYHDFAEKLKMSPGRSRGPGGDPHHMNPHMTFSERANRSSLHTPFSPNSETLASAYHANTRAHAYGDPNAGLNSQLHYKRQMYQQQPEEYKDWSSGSAQGVIAAAQHRQEGPRKSPRQQQFLDRVRSPLKNDKDGMMYGPPVGTYHDPSAQEAGRCLMSSDGLPNKGMELKHGSQKLQESCWDLSRQTSPAKSSGPPGMSSQKRYGPPHETDGHGLAEATQSSKPGSVMLRLPGQEDHSSQNPLIMRRRVRSFISPIPSKRQSQDVKNSSTEDKGRLLHSSKEGADKAFNSYAHLSHSQDIKSIPKRDSSKDLPSPDSRNCPAVTLTSPAKTKILPPRKGRGLKLEAIVQKITSPNIRRSASSNSAEAGGDTVTLDDILSLKSGPPEGGSVAVQDADIEKRKGEVASDLVSPANQELHVEKPLPRSSEEWRGSVDDKVKTETHAETVTAGKEPPGAMTSTTSQKPGSNQGRPDGSLGGTAPLIFPDSKNVPPVGILAPEANPKAEEKENDTVTISPKQEGFPPKGYFPSGKKKGRPIGSVNKQKKQQQPPPPPPQPPQIPEGSADGEPKPKKQRQRRERRKPGAQPRKRKTKQAVPIVEPQEPEIKLKYATQPLDKTDAKNKSFYPYIHVVNKCELGAVCTIINAEEEEQTKLVRGRKGQRSLTPPPSSTESKALPASSFMLQGPVVTESSVMGHLVCCLCGKWASYRNMGDLFGPFYPQDYAATLPKNPPPKRATEMQSKVKVRHKSASNGSKTDTEEEEEQQQQQKEQRSLAAHPRFKRRHRSEDCGGGPRSLSRGLPCKKAATEGSSEKTVLDSKPSVPTTSEGGPELELQIPELPLDSNEFWVHEGCILWANGIYLVCGRLYGLQEALEIAREMKCSHCQEAGATLGCYNKGCSFRYHYPCAIDADCLLHEENFSVRCPKHKPPLPCPLPPLQNKTAKGSLSTEQSERG
